Test results as given in patent US20220073604A1 (ARGENX BVBA, published 2022).

How the values were obtained:
human IL-6 = human IL-6 (human, UniProt P05231 30-212); assay: cell-based or functional assay
[1] = target: T1, human IL-6 (as added in the B9 and 7TD1 bioassays) (human, UniProt P05231 30-212); assay: cell-based or functional assay
[2] = target: T1, human IL-6 (as added in the B9 and 7TD1 …); assay: cell-based or functional assay; remark: listed apart in the source
[3] = target: T1, human IL-6 (as added in the B9 and 7TD1 …); assay: cell-based or functional assay; remark: listed apart in the source
[4] = target: T2, eukaryotically produced human IL-6 (human, UniProt P05231 30-212); assay: SPR; periplasmic fraction; against parental 29B11
T2 construct: also called eukIL-6; Euk IL-6

cynomolgus monkey IL-6 [5] = target: T3, cynomolgus monkey IL-6 (cynomolgus monkey, UniProt P79341 28-212, limits assumed); assay: SPR; periplasmic fraction; against parental 29B11
T3 construct: also called HIS-cyIL-6

[6] = target: T4, bacterially produced human IL-6 (human, UniProt P05231 30-212); assay: SPR; periplasmic fraction; against parental 29B11
T4 construct: also called bactIL-6; prokaryotic IL-6

[7] = target: T2, eukaryotically produced human IL-6; assay: SPR; periplasmic fraction
cynomolgus monkey IL-6 [8] = target: T3, cynomolgus monkey IL-6; assay: SPR; periplasmic fraction
[9] = target: T4, bacterially produced human IL-6; assay: SPR; periplasmic fraction

B1: 129D3 antibody (antibody, V domains shown)
VH: EVQLQESGPGLVKPSQTLSLTCTVSGGSITSRYYAWSWIRQPPGKGLEWIGVIDYDGDTYYSPSLKSRVSISWDTSKNQFSLKLSSVTPADTAVYYCARDPDVVTGFHYDYWGQGTMVTVSS
VL: QSALTQPPSVSGTPGQSVTISCAGANNDIGTYAYVSWYQQLPGTAPKLMIYKVTTRASGIPDRFSGSKSGNTASLTISGLQAEDEADYYCASYRNFNNAVFGTGTKLTVL
IC50, growth of IL-6-dependent 7TD1 cells with 75 pg/ml human IL-6 (human IL-6): < 1 pM
IC50, proliferation of IL-6-dependent B9 cells with 10 pg/ml human IL-6 (human IL-6): < 0.1 pM

B2: 133A9 (antibody, V domains shown)
VH: EVQLQESGPGLVKPSQTLSLTCTVSGGSITTRYYAWSWIRQPPGKGLEWIGVIDYEGDTYYSPSLKSRVTISVDTSKNQFSLKLSSVTAEDTAVYYCARDPDVVTGFHYDYWGQGTMVTVSS
VL: QSALTQPPLVSGSPGQTVTISCAGANNDIGTYAYVSWYQQPPGTAPKLMIYKVTTRASGIPDRFSGSISGNTASLTISGLQSEDEADYYCASYRNFNNAVFGTGTKLTVL
IC50, growth of IL-6-dependent 7TD1 cells with 75 pg/ml human IL-6 (human IL-6): < 1 pM

B3: 133H2 (germlined variant of 68F2) (antibody, V domains shown)
VH: EVQLQESGPGLVKPSQTLSLTCTVSGGSITTRYYAWSWIRQPPGKGLEWIGVIDYDGDTYYSPSLKSRTTISWDTSKNQFSLKLSSVTPADTAVYYCARDPDVVTGFHYDYWGQGTTVTVSS
VL: QSALTQPPLVSGSPGQTVTISCAGANNDIGTYAYVSWYQQPPGTAPKLMIYKVTTRASGIPDRFSGSKSGNTASLTISGLQAEDEADYYCASYRNFNNAVFGSGTKLTVL
IC50, 7TD1 cells (batch A1.8) [1]: 0.35 pM
IC50, 7TD1 cells (batch A9.11) [1]: 0.47 pM
Potency relative to 68F2, 7TD1 cells (batch A1.8) [1]: 1.94
Potency relative to 68F2, 7TD1 cells (batch A9.11) [1]: 1.44
IC 50, B9 cell proliferation [2]: 0.37 pM
Rel. potency, B9 cells [2]: 2.2

B4: 133H2 (antibody, V domains shown)
VH: EVQLQESGPGLVKPSQTLSLTCTVSGGSITTRYYAWSWIRQPPGKGLEWIGVIDYDGDTYYSPSLKSRTTISWDTSKNQFSLKLSSVTPADTAVYYCARDPDVVTGFHYDYWGQGTTVTVSS
VL: QSALTQPPLVSGSPGQTVTISCAGANNDIGTYAYVSWYQQPPGTAPKLMIYKVTTRASGIPDRFSGSKSGNTASLTISGLQAEDEADYYCASYRNFNNAVFGSGTKLTVL
IC50, growth of IL-6-dependent 7TD1 cells with 75 pg/ml human IL-6 (human IL-6): < 1 pM

B5: 68F2 (parental antibody), full-length IgG1 (antibody, V domains shown)
VH: EVQLQESGPGLVKPSQTLSLTCTVSGGSITTRYYAWSWIRQPPGKGLEWMGVIDYDGDTYYSPSLKSRTSISWDTSKNQFSLQLSSVTPEDTAVYYCARDPDVVTGFHYDYWGQGTQVTVSS
VL: QSALTQPPLVSGTPGQTVTISCAGANNDIGTYAYVSWYQQLPGTAPKLLIYKVTTRASGIPSRFSGSKSGNTASLTISGLQSEDEADYYCASYRNFNNAVFGRGTHLTVLG
IC50, 7TD1 proliferation assay, exp 7.07 (batch 24.06) [3]: 1.36 pM
IC50, 7TD1 proliferation assay, exp 7.07 (batch #12.9) [3]: 1.46 pM
IC50, 7TD1 proliferation assay, exp 22.06 (batch #12.9) [3]: 0.803 pM
IC50, 7TD1 proliferation assay, exp 29.06 (December batch) [3]: 0.645 pM
IC50, 7TD1 proliferation assay, exp 29.06 (Large batch) [3]: 1.31 pM
IC50, 7TD1 proliferation assay, exp 29.06 (batch 24.06) [3]: 0.56 pM
IC50, 7TD1 proliferation assay, exp 29.06 (batch #12.9) [3]: 0.521 pM
Rel. Potency, 7TD1, exp 29.06 (batch 24.06) [3]: 1
IC50, 7TD1 cells (batch A8.10) [1]: 0.67 pM
Potency relative to 68F2, 7TD1 cells (batch A8.10) [1]: 1
IC 50, B9 cell proliferation (batch 12.9) [2]: 0.98 pM
IC 50, B9 cell proliferation (batch A8.10) [2]: 0.62 pM
average IC50 of the two 68F2 batches, B9 cells [2]: 0.8 pM

B6: 133E5 (germlined variant of 68F2) (antibody, V domains shown)
VH: QVQLQESGPGLVKPSQTLSLTCTVSGGSITSRYYAWSWIRQPPGKGLEWIGVIDYDGDTYYSPSLKSRVTISWDTSKNQFSLKLSSVTPEDTAVYYCARDPDVVTGFHYDYWGQGTQVTVSS
VL: QSALTQPPSVSGSPGQTVTISCAGANNDIGTYAYVSWYQQLPGTAPKLMIYKVTTRASGIPDRFSGSKSGNTASLTISGLQAEDEADYYCASYRNFNNAVFGRGTKLTVL
IC50, 7TD1 cells [1]: 0.1 pM
Potency relative to 68F2, 7TD1 cells [1]: 6.69
IC 50, B9 cell proliferation [2]: 0.19 pM
Rel. potency, B9 cells [2]: 4.3

B7: 132E7 (germlined variant of 68F2) (antibody, V domains shown)
VH: EVQLQESGPGLVKPSQTLSLTCTVSGGSITSRYYAWSWIRQPPGKGLEWIGVIDYDGDTYYSPSLKSRVTISWDTSKNQFSLKLSSVTPADTAVYYCARDPDVVTGFHYDYWGQGTTVTVSS
VL: QSVLTQPPRVSGAPGQTVTISCAGANNDIGTYAYVSWYQQLPGTAPKLLIYKVTTRASGVPDRFSGSKSGNSASLTITGLQAEDEADYYCASYRNFNNAVFGGGTKLTVL
IC50, 7TD1 cells [1]: 0.37 pM
Potency relative to 68F2, 7TD1 cells [1]: 1.85
IC 50, B9 cell proliferation [2]: 0.38 pM
Rel. potency, B9 cells [2]: 2.1

B8: Fab 55H1 (Fab, V domains shown)
VH: EVQLVESGGGLVQPGGSLRLSCAASGFTFSSYAMSWVRQAPGKGLEWVSRISSGGISTYYADSVKGRFTISRDNAKNTLYLQMNSLKPEDTAVYYCVRYAWGVQWAFDFWGQGTQVTVSS
VL: AQSVVTQPPSVSGSPGKTVTISCAGTSSDVGYGNYVSWYQQLPGMAPKLLIYDVSKRASGIADRFSGSKSGNTASLTISGLQSEDEADYVCASYRRGGTAVFGGGTHLTVLG
notes: VL-shuffled Fab of 29B11, periplasmic fraction; also called 55H1c
fold improvement KD [4]: 5.59 fold
fold improvement ka [4]: 6.04 fold
fold improvement kd [4]: 0.92 fold
fold improvement KD (cynomolgus monkey IL-6 [5]): 12.5 fold
fold improvement ka (cynomolgus monkey IL-6 [5]): 10.3 fold
fold improvement kd (cynomolgus monkey IL-6 [5]): 1.21 fold
fold improvement KD [6]: 5.26 fold
fold improvement ka [6]: 5.1 fold
fold improvement kd [6]: 1.03 fold
Ka [7]: 1.02e+10 M⁻¹
Kd [7]: 97.7 pM
koff [7]: 0.000111 s⁻¹
kon [7]: 1.13e+06 M⁻¹ s⁻¹
Ka (cynomolgus monkey IL-6 [8]): 1.89e+09 M⁻¹
Kd (cynomolgus monkey IL-6 [8]): 529 pM
koff (cynomolgus monkey IL-6 [8]): 0.000615 s⁻¹
kon (cynomolgus monkey IL-6 [8]): 1.16e+06 M⁻¹ s⁻¹
Ka [9]: 1e+10 M⁻¹
Kd [9]: 99.7 pM
koff [9]: 0.000127 s⁻¹
kon [9]: 1.28e+06 M⁻¹ s⁻¹

B9: Fab 55E2 (Fab, V domains shown)
VH: EVQLVESGGGLVQPGGSLRLSCAASGFTFSSYAMSWVRQAPGKGLEWVSRISSGGISTYYADSVKGRFTISRDNAKNTLYLQMNSLKPEDTAVYYCVRYAWGVQWAFDFWGQGTQVTVSS
VL: AQSVLTQPPSVSGSPGKTVTISCAGTSSDVGYGNYVSWYQQLPGMAPKLLIYDVNKRASGIADRFSGSKFANTASLTISGLQSEDEADYYCASYKRGDNAVFGGGTKLTVLG
notes: VL-shuffled Fab of 29B11, periplasmic fraction; also called 55E2b
fold improvement KD [4]: 3.46 fold
fold improvement ka [4]: 2.21 fold
fold improvement kd [4]: 1.56 fold
fold improvement KD (cynomolgus monkey IL-6 [5]): 9.22 fold
fold improvement ka (cynomolgus monkey IL-6 [5]): 4.14 fold
fold improvement kd (cynomolgus monkey IL-6 [5]): 2.22 fold
fold improvement KD [6]: 3.82 fold
fold improvement ka [6]: 1.95 fold
fold improvement kd [6]: 1.95 fold
Ka [7]: 6.34e+09 M⁻¹
Kd [7]: 158 pM
koff [7]: 6.53e-05 s⁻¹
kon [7]: 414000 M⁻¹ s⁻¹
Ka (cynomolgus monkey IL-6 [8]): 1.39e+09 M⁻¹
Kd (cynomolgus monkey IL-6 [8]): 717 pM
koff (cynomolgus monkey IL-6 [8]): 0.000336 s⁻¹
kon (cynomolgus monkey IL-6 [8]): 468000 M⁻¹ s⁻¹
Ka [9]: 7.28e+09 M⁻¹
Kd [9]: 137 pM
koff [9]: 6.72e-05 s⁻¹
kon [9]: 489000 M⁻¹ s⁻¹

B10: Fab 47C2 (Fab, V domains shown)
VH: EVQLVESGGGLVQPGGSLRLSCAASGFTFSSYAMSWVRQAPGKGLEWVSRISSGGISTYYADSVKGRFTISRDNAKNTLYLQMNSLKPEDTAVYYCVRYAWGVQWAFDFWGQGTQVTVSS
VL: LSYDLTQPPSVSGSPGKTVTISCAGTSSDVGYGNYVSWYQQLPGMAPKILIYDVNKRASGIADRFSGSKSGNTASLTISGLQSEDEADYYCASYRRGETIVFGGGTHLTVLG
notes: VL-shuffled Fab of 29B11, periplasmic fraction; also called 47C2 (R4)
fold improvement KD [4]: 1.94 fold
fold improvement ka [4]: 4.54 fold
fold improvement kd [4]: 0.43 fold
fold improvement KD (cynomolgus monkey IL-6 [5]): 4.29 fold
fold improvement ka (cynomolgus monkey IL-6 [5]): 7.53 fold
fold improvement kd (cynomolgus monkey IL-6 [5]): 0.57 fold
fold improvement KD [6]: 1.86 fold
fold improvement ka [6]: 4.46 fold
fold improvement kd [6]: 0.42 fold
Ka [7]: 3.54e+09 M⁻¹
Kd [7]: 282 pM
koff [7]: 0.00024 s⁻¹
kon [7]: 849000 M⁻¹ s⁻¹
Ka (cynomolgus monkey IL-6 [8]): 6.48e+08 M⁻¹
Kd (cynomolgus monkey IL-6 [8]): 1540 pM
koff (cynomolgus monkey IL-6 [8]): 0.00131 s⁻¹
kon (cynomolgus monkey IL-6 [8]): 851000 M⁻¹ s⁻¹
Ka [9]: 3.56e+09 M⁻¹
Kd [9]: 281 pM
koff [9]: 0.000315 s⁻¹
kon [9]: 1.12e+06 M⁻¹ s⁻¹
